Laboratory results: the Immune Epitope Database (IEDB)
Blank lines part the entries; values can stand above or below the sequence they belong to.

Tests used:
HLA-B*07:02 [1] = test: IEDB peptide-MHC binding, purified MHC/competitive/radioactivity; filed as Kd, often an IC50 or EC50 that approximates it; ≥ and ≤ were set here for values at or beyond the usual limits of such assays
HLA-B*35:01 = test: as above
HLA-A*68:02 = test: as above
HLA-A*26:01 [2] = test: as above; settings: source organism: Dengue virus 1 Brazil/97-11/1997
HLA-A*02:01 [3] = test: IEDB peptide-MHC binding, purified MHC/competitive/fluorescence; ≥ and ≤ were set here for values at or beyond the usual limits of such assays
HLA-B*53:01 = test: IEDB peptide-MHC binding, purified MHC/competitive/radioactivity; filed as Kd, often an IC50 or EC50 that approximates it; ≥ and ≤ were set here for values at or beyond the usual limits of such assays
HLA-A*24:02 = test: IEDB peptide-MHC binding, purified MHC/competitive/fluorescence; ≥ and ≤ were set here for values at or beyond the usual limits of such assays
HLA-B*08:01 [4] = test: IEDB peptide-MHC binding, purified MHC/direct/fluorescence; filed as Kd, often an IC50 or EC50 that approximates it; ≥ and ≤ were set here for values at or beyond the usual limits of such assays
HLA-A*03:01 = test: as above
HLA-A*01:01 = test: as above
HLA-A*11:01 = test: as above
HLA-B*58:01 = test: as above
HLA-A*31:01 = test: as above; settings: source organism: Escherichia coli O157:H7
HLA-B*27:05 = test: as above
HLA-A*02:01 [5] = test: as above
HLA-B*15:01 = test: as above
HLA-B*07:02 [6] = test: as above
HLA-A*26:01 [7] = test: as above
HLA-A*69:01 = test: as above
HLA-B*40:01 = test: as above
HLA-B*44:02 = test: as above; settings: source organism: Escherichia coli O157:H7
HLA-B*08:01 [8] = test: IEDB peptide-MHC binding, purified MHC/competitive/radioactivity; filed as Kd, often an IC50 or EC50 that approximates it; ≥ and ≤ were set here for values at or beyond the usual limits of such assays; settings: source organism: Dengue virus 2 Jamaica/1409/1983
HLA-B*51:01 = test: as above
HLA-A*02:06 = test: as above; settings: source organism: Dengue virus 3 Martinique/1243/1999
HLA-A*30:02 = test: as above; settings: source organism: Dengue virus 1 Brazil/97-11/1997
[9] = source organism: Dengue virus 2 Jamaica/1409/1983
[10] = source organism: Dengue virus 1 Brazil/97-11/1997
[11] = source organism: Zaire ebolavirus
[12] = source organism: Sudan ebolavirus
[13] = source organism: Vaccinia virus WR
[14] = source organism: Dengue virus 3 Martinique/1243/1999
[15] = source organism: Escherichia coli O157:H7
[16] = source organism: Vaccinia virus
[17] = source organism: Dengue virus 4 Philippines/H241/1956
[18] = source organism: Vaccinia virus Copenhagen
[19] = source organism: Escherichia coli

Sequence: GPMPVTHSSA
- Kd (HLA-B*07:02 [1]; [9]): 0.00721 µM

Sequence: HALLATSIF
- Kd (HLA-B*35:01; [10]): 0.0168 µM

Sequence: HTIENTTANI
- Kd (HLA-A*68:02; [10]): 0.00175 µM
- Kd (HLA-A*26:01 [2]): 2.07 µM

Sequence: IIQAFEAGV
- IC50 (HLA-A*02:01 [3]; [11]): 2.47 µM

Sequence: IPATLFVWY
- Kd (HLA-B*53:01; [10]): 0.01 µM
- Kd (HLA-B*35:01; [10]): 0.00339 µM

Sequence: IYTEGLMHN
- IC50 (HLA-A*24:02; [12]): 4.41 µM

Sequence: KEGAFFLYD
- IC50 (HLA-A*02:01 [3]; [11]): ≥ 3840 µM
- IC50 (HLA-A*24:02; [11]): 46 µM

Sequence: KPSGSASSM
- Kd (HLA-B*07:02 [1]; [10]): 0.00488 µM

Sequence: LFTEQAFYT
- IC50 (HLA-A*02:01 [3]; [13]): 68.1 µM
- IC50 (HLA-A*24:02; [13]): 55 µM

Sequence: LITSTVTGI
- IC50 (HLA-A*02:01 [3]; [12]): 1.64 µM
- IC50 (HLA-A*24:02; [12]): 17.9 µM

Sequence: MPGTFQTTTG
- Kd (HLA-B*53:01; [14]): 0.427 µM
- Kd (HLA-B*35:01; [14]): 0.157 µM

Sequence: MPTVIEHLER
- Kd (HLA-B*53:01; [14]): 7.05 µM
- Kd (HLA-B*35:01; [14]): 0.871 µM

Sequence: NADIGEWAF
- IC50 (HLA-A*24:02; [12]): 55.5 µM

Sequence: QSPPIREAV
- IC50 (HLA-A*02:01 [3]; [12]): 38.3 µM

- Kd (HLA-B*08:01 [4]; [15]): ≥ 20 µM
- Kd (HLA-A*03:01; [15]): ≥ 20 µM
- Kd (HLA-A*01:01; [15]): ≥ 20 µM
- Kd (HLA-A*11:01; [15]): ≥ 20 µM
- Kd (HLA-B*58:01; [15]): ≥ 20 µM
- Kd (HLA-A*31:01): ≥ 20 µM
- Kd (HLA-B*27:05; [15]): ≥ 20 µM
- Kd (HLA-A*02:01 [5]; [15]): ≥ 20 µM
- Kd (HLA-B*15:01; [15]): ≥ 20 µM
- Kd (HLA-B*07:02 [6]; [15]): ≥ 20 µM
- Kd (HLA-A*26:01 [7]; [15]): ≥ 20 µM
- Kd (HLA-A*69:01; [15]): ≥ 20 µM
- Kd (HLA-B*40:01; [15]): ≥ 10 µM
- Kd (HLA-B*44:02): ≥ 20 µM
Sequence: RFDEAIINY

Sequence: RLEEEINNQ
- IC50 (HLA-A*02:01 [3]; [16]): ≥ 195 µM
- IC50 (HLA-A*24:02; [16]): 32.6 µM

Sequence: RLRMDKLQL
- Kd (HLA-B*08:01 [8]): 0.175 µM
- Kd (HLA-B*07:02 [1]; [9]): 0.149 µM

Sequence: SLEEEYPPW
- IC50 (HLA-A*02:01 [3]; [11]): ≥ 214 µM
- IC50 (HLA-A*24:02; [11]): ≥ 179 µM

Sequence: SPARLASAI
- Kd (HLA-B*51:01; [17]): 0.532 µM
- Kd (HLA-B*07:02 [1]; [17]): 0.00268 µM

Sequence: SPIVDRKGKV
- Kd (HLA-B*07:02 [1]; [9]): 0.545 µM

Sequence: SPPEVERAVL
- Kd (HLA-B*07:02 [1]; [10]): 0.0197 µM

Sequence: STLAGVNVG
- IC50 (HLA-A*02:01 [3]; [11]): ≥ 105 µM

Sequence: TETKITFAL
- IC50 (HLA-A*02:01 [3]; [18]): ≥ 83.3 µM
- IC50 (HLA-A*24:02; [18]): 19 µM

Sequence: TPHSGEEHAV
- Kd (HLA-B*07:02 [1]; [9]): 0.162 µM

Sequence: TPQDNQLIYV
- Kd (HLA-B*07:02 [1]; [17]): 7.76 µM

Sequence: TQETITETA
- IC50 (HLA-A*02:01 [3]; [12]): ≥ 184 µM

Sequence: TTELRTYTI
- IC50 (HLA-A*02:01 [3]; [12]): ≥ 94.5 µM
- IC50 (HLA-A*24:02; [12]): 0.925 µM

- Kd (HLA-B*08:01 [4]; [19]): ≥ 20 µM
- Kd (HLA-A*03:01; [19]): ≥ 20 µM
- Kd (HLA-A*01:01; [19]): ≥ 20 µM
- Kd (HLA-A*11:01; [19]): 1.58 µM
- Kd (HLA-B*58:01; [19]): ≥ 20 µM
- Kd (HLA-B*27:05; [19]): ≥ 20 µM
- Kd (HLA-A*02:01 [5]; [19]): ≥ 20 µM
- Kd (HLA-B*15:01; [19]): ≥ 20 µM
- Kd (HLA-B*07:02 [6]; [19]): ≥ 20 µM
- Kd (HLA-A*26:01 [7]; [19]): ≥ 20 µM
- Kd (HLA-A*69:01; [19]): ≥ 20 µM
- Kd (HLA-B*40:01; [19]): ≥ 20 µM
Sequence: TVANNPDDK

Sequence: VPTSRTTWSI
- Kd (HLA-B*51:01; [9]): 0.0525 µM
- Kd (HLA-B*07:02 [1]; [9]): 0.0503 µM

Sequence: WVMKIGIGV
- Kd (HLA-A*02:06): 0.00138 µM
- Kd (HLA-A*68:02; [14]): 0.00527 µM

Sequence: YKVASEGFQY
- Kd (HLA-B*35:01; [10]): 3.92 µM
- Kd (HLA-A*30:02): 0.135 µM

Sequence: YQLLEAVYG
- IC50 (HLA-A*02:01 [3]; [18]): 31.1 µM

Sequence: YRSGTETKI
- IC50 (HLA-A*24:02; [18]): ≥ 315 µM

Sequence: YVSAGESSI
- IC50 (HLA-A*02:01 [3]; [18]): 32.7 µM
